{"source": "paper doi:10.1101/2020.06.12.148387", "about": "(bioRxiv, 2020)", "binders": {"B1": {"name": "EY6A Fab (digested from IgG with papain) (Fab, V domains shown)", "VH": "EVQLVESGGGVVQPGRSLRLSCAASAFTFSSYDMHWVRQAPGKGLEWVAVISYDGSNKYYADSVKGRFTISRDNSKNTLYLQMNSLRAEDTAVYYCAKDGGKLWVYYFDYWGQGTLVTVSS", "VL": "not shown", "notes": "also called Fab-EY6A; source: digested from ExpiCHO-made IgG with papain (Pierce Fab Preparation Kit)"}}, "molecular_target": "T1, SARS-CoV-2 Spike ectodomain (pre-fusion, with proline mutations) (SARS-CoV-2, early reference strain …, residues 986 and 987 mutated to a Pro-Pro sequence)", "T1 construct": "also called pre-fusion Spike; trimeric Spike", "test": "cryo-EM structure", "conditions": "both partners purified"}
{"binder": "B1", "values": [{"measurement": "stoichiometry N", "result": 3, "unit": "Fabs per Spike trimer"}]}
